{"source": "patent US7432093B2", "about": "“Soluble, functional apoptotic protease-activating factor 1 fragments” (The Trustees of Princeton University, priority 2004, dated 2008)", "data": [{"type": "physicochemical, E. coli", "method": "Preferably, solubility of the fragment is assessed in a lysate of a bacterial culture used to produce the fragment at a concentration of at least 1 milligram per liter of bacterial culture.\nAll constructs for protein expression were generated using a standard PCR-based cloning strategy, and the identity of individual clones was verified by double-stranded plasmid sequencing. A soluble Apaf-1 fragment (residues 1-591, sequence (SEQ ID NO: 1) shown in FIG. 1) was over-expressed in Escherichia coli strain BL21(DE3) using plasmid vector pET29 having the nucleotide sequence described by Jiang et al. (2000, J. Biol. Chem. 275:31199-31203) operatively ligated therein. The coding sequence included an additional sequence encoding eight amino acid residues at its carboxy-terminal end (i.e., linked to residue 591 in the translated protein). These residues (Leu-Glu-His6) included a nickel-binding hexa-histidine sequence used for metal affinity chromatographic purification of the expressed protein. Soluble Apaf-1 was purified from the cell lysate using a Ni-NTA (nitrilotriacetic acid-ligated nickel; Qiagen) chromatography column. Dithiothreitol (DTT) and ethylenediamine tetraacetic acid (EDTA) were added to the eluted fraction in final concentrations of 5 millimolar each. After incubation for 30 minutes on ice, the protein solution was applied to an anion-exchange column (Source-15Q, Pharmacia) for further purification.", "values": [{"molecule": "1-567: recombinant Apaf-1 fragment, residues 1-567 of SEQ ID NO: 1 (protein, listed as Homo sapiens) MDAKARNCLLQHREALEKDIKTSYIMDHMISDGFLTISEEEKVRNEPTQQQRAAMLIKMILKKDNDSYVSFYNALLHEGYKDLAALLHDGIPVVSSSSGKDSVSGITSYVRTVLCEGGVPQRPVVFVTRKKLVNAIQQKLSKLKGEPGWVTIHGMAGCGKSVLAAEAVRDHSLLEGCFPGGVHWVSVGKQDKSGLLMKLQNLCTRLDQDESFSQRLPLNIEEAKDRLRILMLRKHPRSLLILDDVWDSWVLKAFDSQCQILLTTRDKSVTDSVMGPKYVVPVESSLGKEKGLEILSLFVNMKKADLPEQAHSIIKECKGSPLVVSLIGALLRDFPNRWEYYLKQLQNKQFKRIRKSSSYDYEALDEAMSISVEMLREDIKDYYTDLSILQKDVKVPTKVLCILWDMETEEVEDILQEFVNKSLLFCDRNGKSFRYYLHDLQVDFLTEKNCSQLQDLHKKIITQFQRYHQPHTLSPDQEDCMYWYNFLAYHMASAKMHKELCALMFSLDWIKAKTELVGPAHLIHEFVEYRHILDEKDCAVSENFQEFLSLNGHLLGRQPFPNIVQLG", "Solubility": "+++", "solubility and solution behavior (in words)": "good solubility and solution behavior"}, {"molecule": "1-554: recombinant Apaf-1 fragment, residues 1-554 of SEQ ID NO: 1 (protein, listed as Homo sapiens) MDAKARNCLLQHREALEKDIKTSYIMDHMISDGFLTISEEEKVRNEPTQQQRAAMLIKMILKKDNDSYVSFYNALLHEGYKDLAALLHDGIPVVSSSSGKDSVSGITSYVRTVLCEGGVPQRPVVFVTRKKLVNAIQQKLSKLKGEPGWVTIHGMAGCGKSVLAAEAVRDHSLLEGCFPGGVHWVSVGKQDKSGLLMKLQNLCTRLDQDESFSQRLPLNIEEAKDRLRILMLRKHPRSLLILDDVWDSWVLKAFDSQCQILLTTRDKSVTDSVMGPKYVVPVESSLGKEKGLEILSLFVNMKKADLPEQAHSIIKECKGSPLVVSLIGALLRDFPNRWEYYLKQLQNKQFKRIRKSSSYDYEALDEAMSISVEMLREDIKDYYTDLSILQKDVKVPTKVLCILWDMETEEVEDILQEFVNKSLLFCDRNGKSFRYYLHDLQVDFLTEKNCSQLQDLHKKIITQFQRYHQPHTLSPDQEDCMYWYNFLAYHMASAKMHKELCALMFSLDWIKAKTELVGPAHLIHEFVEYRHILDEKDCAVSENFQEFLSLNGHL", "Solubility": "++", "solubility and solution behavior (in words)": "good solubility and solution behavior"}, {"molecule": "1-286: recombinant Apaf-1 fragment, residues 1-286 of SEQ ID NO: 1 (protein, listed as Homo sapiens) MDAKARNCLLQHREALEKDIKTSYIMDHMISDGFLTISEEEKVRNEPTQQQRAAMLIKMILKKDNDSYVSFYNALLHEGYKDLAALLHDGIPVVSSSSGKDSVSGITSYVRTVLCEGGVPQRPVVFVTRKKLVNAIQQKLSKLKGEPGWVTIHGMAGCGKSVLAAEAVRDHSLLEGCFPGGVHWVSVGKQDKSGLLMKLQNLCTRLDQDESFSQRLPLNIEEAKDRLRILMLRKHPRSLLILDDVWDSWVLKAFDSQCQILLTTRDKSVTDSVMGPKYVVPVESSL", "solubility and solution behavior (in words)": "largely insoluble"}, {"molecule": "1-570: recombinant Apaf-1 fragment, residues 1-570 of SEQ ID NO: 1 (protein, listed as Homo sapiens) MDAKARNCLLQHREALEKDIKTSYIMDHMISDGFLTISEEEKVRNEPTQQQRAAMLIKMILKKDNDSYVSFYNALLHEGYKDLAALLHDGIPVVSSSSGKDSVSGITSYVRTVLCEGGVPQRPVVFVTRKKLVNAIQQKLSKLKGEPGWVTIHGMAGCGKSVLAAEAVRDHSLLEGCFPGGVHWVSVGKQDKSGLLMKLQNLCTRLDQDESFSQRLPLNIEEAKDRLRILMLRKHPRSLLILDDVWDSWVLKAFDSQCQILLTTRDKSVTDSVMGPKYVVPVESSLGKEKGLEILSLFVNMKKADLPEQAHSIIKECKGSPLVVSLIGALLRDFPNRWEYYLKQLQNKQFKRIRKSSSYDYEALDEAMSISVEMLREDIKDYYTDLSILQKDVKVPTKVLCILWDMETEEVEDILQEFVNKSLLFCDRNGKSFRYYLHDLQVDFLTEKNCSQLQDLHKKIITQFQRYHQPHTLSPDQEDCMYWYNFLAYHMASAKMHKELCALMFSLDWIKAKTELVGPAHLIHEFVEYRHILDEKDCAVSENFQEFLSLNGHLLGRQPFPNIVQLGLCE", "Solubility": "+++", "solubility and solution behavior (in words)": "good solubility and solution behavior"}, {"molecule": "1-349: recombinant Apaf-1 fragment, residues 1-349 of SEQ ID NO: 1 (protein, listed as Homo sapiens) MDAKARNCLLQHREALEKDIKTSYIMDHMISDGFLTISEEEKVRNEPTQQQRAAMLIKMILKKDNDSYVSFYNALLHEGYKDLAALLHDGIPVVSSSSGKDSVSGITSYVRTVLCEGGVPQRPVVFVTRKKLVNAIQQKLSKLKGEPGWVTIHGMAGCGKSVLAAEAVRDHSLLEGCFPGGVHWVSVGKQDKSGLLMKLQNLCTRLDQDESFSQRLPLNIEEAKDRLRILMLRKHPRSLLILDDVWDSWVLKAFDSQCQILLTTRDKSVTDSVMGPKYVVPVESSLGKEKGLEILSLFVNMKKADLPEQAHSIIKECKGSPLVVSLIGALLRDFPNRWEYYLKQLQNKQ", "Solubility": "++", "solubility and solution behavior (in words)": "soluble to significant extent"}, {"molecule": "1-591 K160R: Apaf-1 fragment 1-591 of SEQ ID NO: 1 with K160R substitution (protein, listed as Homo sapiens) MDAKARNCLLQHREALEKDIKTSYIMDHMISDGFLTISEEEKVRNEPTQQQRAAMLIKMILKKDNDSYVSFYNALLHEGYKDLAALLHDGIPVVSSSSGKDSVSGITSYVRTVLCEGGVPQRPVVFVTRKKLVNAIQQKLSKLKGEPGWVTIHGMAGCGRSVLAAEAVRDHSLLEGCFPGGVHWVSVGKQDKSGLLMKLQNLCTRLDQDESFSQRLPLNIEEAKDRLRILMLRKHPRSLLILDDVWDSWVLKAFDSQCQILLTTRDKSVTDSVMGPKYVVPVESSLGKEKGLEILSLFVNMKKADLPEQAHSIIKECKGSPLVVSLIGALLRDFPNRWEYYLKQLQNKQFKRIRKSSSYDYEALDEAMSISVEMLREDIKDYYTDLSILQKDVKVPTKVLCILWDMETEEVEDILQEFVNKSLLFCDRNGKSFRYYLHDLQVDFLTEKNCSQLQDLHKKIITQFQRYHQPHTLSPDQEDCMYWYNFLAYHMASAKMHKELCALMFSLDWIKAKTELVGPAHLIHEFVEYRHILDEKDCAVSENFQEFLSLNGHLLGRQPFPNIVQLGLCEPETSEVYQQAKLQAKQEVDNG", "Solubility": "++", "solubility and solution behavior (in words)": "without significant loss of activity or solubility"}, {"molecule": "1-611: recombinant Apaf-1 protein, residues 1-611 (protein, UniProt O14727 1-611, looked up, fragment) MDAKARNCLLQHREALEKDIKTSYIMDHMISDGFLTISEEEKVRNEPTQQQRAAMLIKMILKKDNDSYVSFYNALLHEGYKDLAALLHDGIPVVSSSSGKDSVSGITSYVRTVLCEGGVPQRPVVFVTRKKLVNAIQQKLSKLKGEPGWVTIHGMAGCGKSVLAAEAVRDHSLLEGCFPGGVHWVSVGKQDKSGLLMKLQNLCTRLDQDESFSQRLPLNIEEAKDRLRILMLRKHPRSLLILDDVWDSWVLKAFDSQCQILLTTRDKSVTDSVMGPKYVVPVESSLGKEKGLEILSLFVNMKKADLPEQAHSIIKECKGSPLVVSLIGALLRDFPNRWEYYLKQLQNKQFKRIRKSSSYDYEALDEAMSISVEMLREDIKDYYTDLSILQKDVKVPTKVLCILWDMETEEVEDILQEFVNKSLLFCDRNGKSFRYYLHDLQVDFLTEKNCSQLQDLHKKIITQFQRYHQPHTLSPDQEDCMYWYNFLAYHMASAKMHKELCALMFSLDWIKAKTELVGPAHLIHEFVEYRHILDEKDCAVSENFQEFLSLNGHLLGRQPFPNIVQLGLCEPETSEVYQQAKLQAKQEVDNGMLYLEWINKKNITNLSRLVV", "solubility and solution behavior (in words)": "good solubility and solution behavior"}]}]}
